The values that follow are results of earlier work, collected in paper PMC13341169.

Data set [1] concerns the target PKA C-subunit (Homo sapiens) (UniProt P17612).
Data set [2] shares this target. The source holds these as a separate data set.

Read-outs that look alike come from different tables or passages of the source.

The term Kd denotes the constant that tells how readily two partners part at equilibrium. On to PKIβ (from UniProt Q9C010), for which the dissociation constant (Kd) in data set [1] is 7.1 nM.

Take PKIγ (from UniProt Q9Y2B9): the equilibrium dissociation constant (Kd) in data set [2] is 0.4 nM.
